The target in one data set is T1, WT-GFP-ERK2, P63086.
T1 chain: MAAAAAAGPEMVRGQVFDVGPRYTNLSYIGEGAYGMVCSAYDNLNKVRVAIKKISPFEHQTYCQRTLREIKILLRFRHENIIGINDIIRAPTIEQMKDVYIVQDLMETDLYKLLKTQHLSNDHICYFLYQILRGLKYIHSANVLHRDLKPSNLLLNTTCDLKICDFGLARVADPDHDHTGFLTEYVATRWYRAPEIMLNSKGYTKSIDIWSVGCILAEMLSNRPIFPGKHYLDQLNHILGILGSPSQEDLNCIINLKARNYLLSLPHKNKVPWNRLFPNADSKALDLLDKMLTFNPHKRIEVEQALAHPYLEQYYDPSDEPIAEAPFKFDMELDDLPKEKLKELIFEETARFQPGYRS

For the next data set, the target named is T2, TEY-AAA-ERK2, P63086.
T2 chain: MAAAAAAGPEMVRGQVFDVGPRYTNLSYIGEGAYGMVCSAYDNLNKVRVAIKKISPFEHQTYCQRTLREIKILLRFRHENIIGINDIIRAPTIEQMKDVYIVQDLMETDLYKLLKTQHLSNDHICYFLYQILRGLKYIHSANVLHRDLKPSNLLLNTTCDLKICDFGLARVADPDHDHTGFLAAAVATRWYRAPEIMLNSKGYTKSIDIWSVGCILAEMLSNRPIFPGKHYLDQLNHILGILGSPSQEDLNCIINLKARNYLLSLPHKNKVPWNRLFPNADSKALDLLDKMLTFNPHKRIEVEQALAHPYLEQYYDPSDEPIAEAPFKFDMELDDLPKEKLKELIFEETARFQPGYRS

In a further data set the target is T3, APA-GFP-ERK2, P63086.
T3 chain: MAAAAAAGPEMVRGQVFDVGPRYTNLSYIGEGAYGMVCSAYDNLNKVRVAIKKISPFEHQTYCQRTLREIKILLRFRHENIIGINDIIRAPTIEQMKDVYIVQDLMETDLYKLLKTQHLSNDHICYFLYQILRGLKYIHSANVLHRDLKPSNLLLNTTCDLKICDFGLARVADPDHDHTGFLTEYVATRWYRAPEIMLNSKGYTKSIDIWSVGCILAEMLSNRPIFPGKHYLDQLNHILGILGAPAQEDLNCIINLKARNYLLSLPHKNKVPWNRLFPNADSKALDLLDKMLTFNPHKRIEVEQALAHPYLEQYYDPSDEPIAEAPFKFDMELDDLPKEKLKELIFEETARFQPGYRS

Another data set concerns the target T4, importin-β (UniProt Q14974 1-876).
T4 construct: also called Impβ
As to the kind of experiment: co-immunoprecipitation with anti GFP Ab from HeLa cells, Western blot with anti importin-β Ab. The method, then:
FIG. 9A. […] The extracts of the treated cells were then subjected to coimmunoprecipitation using A/G beads pre-conjugated with anti GFP Ab and mild washes. […] The equal amount of immunoprecipitated ERKs was determined with anti GFP (αGFP; IP) Ab. FIG. 19B. […] HeLa cells overexpressing 2GFP, 2GFP-SPS, 2GFP-APA and 2GFP-EPE constructs were subjected to coimmunoprecipitation as described in FIG. 19A (without EGF stimulation). FIG. 19C. […] This was followed by mild washing, and the beads were then subjected to Western blot analysis using anti His (αHis) and anti αGFP Abs.
On the technique in general: In western blotting, separated proteins are transferred to a membrane and probed.

B1: active GST-ERK2 (protein)
chain: MAAAAAAGPEMVRGQVFDVGPRYTNLSYIGEGAYGMVCSAYDNLNKVRVAIKKISPFEHQTYCQRTLREIKILLRFRHENIIGINDIIRAPTIEQMKDVYIVQDLMETDLYKLLKTQHLSNDHICYFLYQILRGLKYIHSANVLHRDLKPSNLLLNTTCDLKICDFGLARVADPDHDHTGFLTEYVATRWYRAPEIMLNSKGYTKSIDIWSVGCILAEMLSNRPIFPGKHYLDQLNHILGILGSPSQEDLNCIINLKARNYLLSLPHKNKVPWNRLFPNADSKALDLLDKMLTFNPHKRIEVEQALAHPYLEQYYDPSDEPIAEAPFKFDMELDDLPKEKLKELIFEETARFQPGYRS
For the molecule B1, in the data set with WT-GFP-ERK2, P63086, the “^32P incorporation, in vitro kinase assay” value is on record as “^32P incorporation to GFP-ERK2 was detected mainly when this protein was incubated with Act-ERK2”. For the same molecule, the “^32P incorporation, in vitro kinase assay (reduction against GFP-ERK2)” value is listed as “The phosphorylation of TEY-AAA was reduced by ˜25%” in the data set with TEY-AAA-ERK2, P63086 and “that of SPS-APA was reduced by ˜80%” with APA-GFP-ERK2, P63086.

B2: WT-GFP-ERK2 (enzyme, UniProt P63086 1-358, looked up)
chain: MAAAAAAGPEMVRGQVFDVGPRYTNLSYIGEGAYGMVCSAYDNLNKVRVAIKKISPFEHQTYCQRTLREIKILLRFRHENIIGINDIIRAPTIEQMKDVYIVQDLMETDLYKLLKTQHLSNDHICYFLYQILRGLKYIHSANVLHRDLKPSNLLLNTTCDLKICDFGLARVADPDHDHTGFLTEYVATRWYRAPEIMLNSKGYTKSIDIWSVGCILAEMLSNRPIFPGKHYLDQLNHILGILGSPSQEDLNCIINLKARNYLLSLPHKNKVPWNRLFPNADSKALDLLDKMLTFNPHKRIEVEQALAHPYLEQYYDPSDEPIAEAPFKFDMELDDLPKEKLKELIFEETARFQPGYRS
modifications: SPS domain (Ser244, Ser246) and TEY motif phosphorylated upon stimulation of the cells (EGF, TPA, VOOH); the state depends on the cell treatment named in each row
notes: Overexpressed in HeLa or COS7 cells and immunoprecipitated with anti GFP Ab; also called WT-ERK2; WT-ERK; not shown: GFP encoded by pEGFP C1 (Clontech)
Regarding B2, the binding result with importin-β is on record as “no binding”.

B3: APA-GFP-ERK2 (enzyme, UniProt P63086 1-358, looked up)
chain: MAAAAAAGPEMVRGQVFDVGPRYTNLSYIGEGAYGMVCSAYDNLNKVRVAIKKISPFEHQTYCQRTLREIKILLRFRHENIIGINDIIRAPTIEQMKDVYIVQDLMETDLYKLLKTQHLSNDHICYFLYQILRGLKYIHSANVLHRDLKPSNLLLNTTCDLKICDFGLARVADPDHDHTGFLTEYVATRWYRAPEIMLNSKGYTKSIDIWSVGCILAEMLSNRPIFPGKHYLDQLNHILGILGAPAQEDLNCIINLKARNYLLSLPHKNKVPWNRLFPNADSKALDLLDKMLTFNPHKRIEVEQALAHPYLEQYYDPSDEPIAEAPFKFDMELDDLPKEKLKELIFEETARFQPGYRS
notes: also called GFP-ERK244/6A; ERK-AA; not shown: GFP encoded by pEGFP C1 (Clontech)
Turning to B3, the binding result with importin-β was “no binding”.

B4: EPE-GFP-ERK2 (enzyme, UniProt P63086 1-358, looked up)
chain: MAAAAAAGPEMVRGQVFDVGPRYTNLSYIGEGAYGMVCSAYDNLNKVRVAIKKISPFEHQTYCQRTLREIKILLRFRHENIIGINDIIRAPTIEQMKDVYIVQDLMETDLYKLLKTQHLSNDHICYFLYQILRGLKYIHSANVLHRDLKPSNLLLNTTCDLKICDFGLARVADPDHDHTGFLTEYVATRWYRAPEIMLNSKGYTKSIDIWSVGCILAEMLSNRPIFPGKHYLDQLNHILGILGEPEQEDLNCIINLKARNYLLSLPHKNKVPWNRLFPNADSKALDLLDKMLTFNPHKRIEVEQALAHPYLEQYYDPSDEPIAEAPFKFDMELDDLPKEKLKELIFEETARFQPGYRS
notes: also called GFP-ERK244/6E; ERK-EE; not shown: GFP encoded by pEGFP C1 (Clontech)
B4: in the data set with importin-β, the binding result is on record as “no binding”.

For the origin of these results see patent US20100099627A1 (YEDA RESEARCH AND DEVELOPMENT, published 2010).
